# Measurements reported in US20160272707A1 (COMPUGEN, published 2016).
# Tests used:
# VSTM5 monomer [1] = molecular target: T1, VSTM5 monomer (UniProt A8MXK1 29-147, limits assumed); experiment: SPR, VSTM5 monomer binding to the IgG
# T1 construct: also called monomeric VSTM5 antigen; VSTM5 antigen
# T1 sequence (looked up): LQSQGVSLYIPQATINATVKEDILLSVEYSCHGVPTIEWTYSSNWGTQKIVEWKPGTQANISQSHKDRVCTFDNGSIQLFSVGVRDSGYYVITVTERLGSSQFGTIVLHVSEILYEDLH
# VSTM5 monomer [2] = molecular target: T1, VSTM5 monomer; experiment: SPR, VSTM5 monomer binding to the IgG (equilibrium binding constant)
# [3] = molecular target: T2, mouse VSTM5 (SEQ ID NO:11) expressed on HEK-293T cells (mouse, UniProt Q9D806 28-199); experiment: FACS, IgG1 at 22 nM on 293-muVSTM5 cells; grade from ratio to 293-MT control cells (50-400)
# T2 construct: also called mouse VSTM5 untagged
# T2 sequence: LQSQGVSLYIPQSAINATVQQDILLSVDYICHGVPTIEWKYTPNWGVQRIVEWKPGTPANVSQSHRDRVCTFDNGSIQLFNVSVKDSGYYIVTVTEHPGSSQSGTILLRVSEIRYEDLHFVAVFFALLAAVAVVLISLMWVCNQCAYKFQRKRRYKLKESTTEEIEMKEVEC
# [4] = molecular target: T3, human VSTM5-EGFP (SEQ ID NO:133) expressed on HEK-293 cells (human); experiment: FACS, IgG1 at 22 nM on 293-huVSTM5 (VSTM5-EGFP) cells; grade from ratio to 293-MT control cells (50-400)
# T3 construct: Full-length human VSTM5 fused at its C-terminus to EGFP; also called VSTM5_GFP
# [5] = molecular target: T2, mouse VSTM5 (SEQ ID NO:11) expressed on …; experiment: FACS, IgG1 at 22 nM on 293-muVSTM5 cells; grade from ratio to 293-MT control cells (850-2000)
# [6] = molecular target: T3, human VSTM5-EGFP (SEQ ID NO:133) …; experiment: FACS, IgG1 at 22 nM on 293-huVSTM5 (VSTM5-EGFP) cells; grade from ratio to 293-MT control cells (850-2000)
# [7] = molecular target: T2, mouse VSTM5 (SEQ ID NO:11) expressed on …; experiment: FACS titration of the human IgG1 on 293-muVSTM5 cells, panel 'Ab binding vs. mouse VSTM5'; y axis MFI (anti-Human A647)
# [8] = molecular target: T3, human VSTM5-EGFP (SEQ ID NO:133) …; experiment: FACS titration of the human IgG1 on 293-huVSTM5 cells, 293-MT control cells as open squares; y axis MFI (anti-Human A647)
# [9] = molecular target: T4, VSTM5-ECD-Ig H:H (human VSTM5 ECD fused to human IgG1 Fc, SEQ ID NO:130) (human); experiment: FACS of tosyl-activated beads coated with anti-CD3 and 0 to 320 ug/ml VSTM5-ECD-Ig, stained with Alexa 647 conjugated 53-01.B11
# T4 construct: also called VSTM5-ECD-Ig fusion protein; VSTM5HH
# Experimental: Tosyl activated beads (Invitrogen, Cat#14013) at 500×10⁶/ml were coated with anti-CD3 mAb and Fc fusion proteins in a two-step protocol: with 50 ug/ml human anti-CD3 clone UTCH1 (R&D systems, Cat# mab 100) in sodium phosphate buffer at 37° C. overnight, followed with 0-320 ug/ml of VSTM5-ECD-Ig fusion protein (human ECD of VSTM5 fused with Fc of human IgG1) for another overnight incubation at 37° C. In the second step, control human Fc was added together with Fc fusion protein so that the total amount of protein is 160 ug/ml (Bioxcell, Cat# BE0096) for the 0, 20, 40, 80 and 160 ug/ml coating condition (except for the 320 ug/ml coating condition).
# The amount of anti-CD3 antibody bound to the beads was analyzed using goat anti-mouse 647 (Jackson ImmunoResearch, Cat#115-606-146).
# [10] = molecular target: T5, human VSTM5 (SEQ ID NO:132) expressed on HEK-293T cells (human, UniProt A8MXK1 29-200); experiment: flow cytometry on HEK293T cells expressing untagged human VSTM5; antibody at 1 nM (0.15 ug/ml), PE goat anti-human secondary 1:200
# T5 construct: For the western blot, whole cell extracts were used; no signal peptide limits are stated; also called human VSTM5 untagged; HEK293T recombinant cells expressing human VSTM5
# T5 sequence: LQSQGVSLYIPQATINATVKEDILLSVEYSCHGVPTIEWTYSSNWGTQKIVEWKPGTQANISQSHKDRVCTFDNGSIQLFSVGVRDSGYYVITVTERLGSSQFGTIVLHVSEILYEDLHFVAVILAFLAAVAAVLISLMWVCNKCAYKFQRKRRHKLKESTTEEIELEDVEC
# Source text: To verify the cell-surface expression of human VSTM5 in HEK293T recombinant cells (FIG. 8C), cells expressing the protein were stained with monoclonal VSTM5 antibody (S53-01-B11, described in Example 12 and 13 herein) and appropriate Isotype control followed by Goat a human PE conjugated Ab (Cat#
# Non expressing cell line (HEK293T_pIRESpuro3) was stained under the same conditions and used for a negative control.
# [11] = molecular target: T6, VSTM5 on human peripheral blood leukocytes (Homo sapiens, UniProt A8MXK1); experiment: FACS, AF647 conjugated antibody on red-cell-lysed human peripheral blood of 3 donors, Fc receptors blocked with human IgG, against Synagis AF647
# T6 construct: full-length, cell surface, endogenous; also called endogenous human VSTM5
# T6 sequence (membrane protein, looked up): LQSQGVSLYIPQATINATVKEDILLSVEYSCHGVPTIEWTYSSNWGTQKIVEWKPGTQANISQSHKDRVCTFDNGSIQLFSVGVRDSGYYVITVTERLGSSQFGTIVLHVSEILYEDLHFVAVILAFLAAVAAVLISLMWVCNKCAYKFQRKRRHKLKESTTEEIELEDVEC
# Experimental: Human peripheral blood was collected from 3 healthy donors. Red blood cells were lysed with RBC Lysis Buffer (eBiosciences Cat#00-4333-57) according to the manufacturer's protocol. Cells were incubated with 400 ug/ml human IgG (Jackson Immunoresearch #009-000-003) for 20 min on ice to block Fc receptors and then stained with cocktails consisting of Synagis® AF647, and anti-VSTM5 antibodies disclosed in Example 12, i.e., anti-VSTM5 AF647 (clone 44-2.E06 or 53-01.B11), anti-CD11b PE (Biolegend Cat#301305), anti-CD45 PerCp Cy5.5 (Biolegend #304207), anti-CD14 FITC (Biolegend cat#352610), or anti-CD41 PE (Biolegend Cat#303705) for 30 min on ice. All AF647 antibodies were conjugated at Compugen using Alexa Fluor® 647 Antibody Labeling Kit (Life Technologies Cat# A-20186) according to the manufacturer's protocol. Cells were washed twice with FACS Buffer (1% BSA, 0.1% Sodium Azide, PBS) and acquired on Intellicyte FACS machine. Data was analyzed by FlowJo and cell subsets defined as below: Monocytes: CD14⁺CD11b⁺, Neutrophils: CD11b⁺CD14^low, Lymphocytes FSC^lowSSC^lo, Eosinophils SSC^hi, platelets: CD45⁻CD41⁺. Staining of anti-VSTM5 antibodies to these cells was compared to staining with Synagis.
binder,measurement,setting,value
"50-01.B01 (antibody, V domains shown, also called 50-01.801) VH: QVQLQESGPGLMKPSQTLSLTCTVSGDSITRGSSYWSWIRQSDGKGLEWIGHIYSGGDTDYNPALKSRVTISADASRGQFLLRLTSMTAADTAVYYCARDRGAYGMDVWGQGTTVTVSS VL: QPVLTQSSSASASLGASVKLTCTLSSEHDRYAIAWLQQKPEKGPRYLMKVNSDGSHRKGDGIPDRFSGSSSGAERYLTISRLQSEDEADYYCQTWGIGIRVFGGGTQLTVLG",Kd,VSTM5 monomer [1],657 nM
same,Kd,VSTM5 monomer [2],657 nM
same,ratio of 293-muVSTM5 cell binding / 293-MT control cell binding (FACS) at 22 nM mAb,[3],50 to 400 ratio
same,ratio of 293-huVSTM5 cell binding / 293-MT control cell binding (FACS) at 22 nM mAb,[4],50 to 400 ratio
"53-01.B11 (antibody, V domains shown, also called S53-01-B11; S53-01.B11) VH: not shown VL: QPVLTQSSSASASLGASVKLTCSLSSGHSSYAIAWHQQQPEKGPRYLMKLNSDGSHSKGDGIPDRFSGSSSGAERYLTISSLQSEDEADYYCQTWGSGIQVFGGGTKLTVLG",ratio of 293-muVSTM5 cell binding / 293-MT control cell binding (FACS) at 22 nM mAb,[5],850 to 2000 ratio
same,ratio of 293-huVSTM5 cell binding / 293-MT control cell binding (FACS) at 22 nM mAb,[6],850 to 2000 ratio
same,EC50 (read off the curve),[7],~2 nM
same,EC50 (read off the curve),[8],~3 nM
same,binding result,[9],binds
same,binding result,[10],binds
same,binding result,[11],binds
